Consider one protein from article PMC5071727, “A Structure‐Guided Switch in the Regioselectivity of a Tryptophan Halogenase” (Chembiochem, 2016).

Common to all, as to experiment: steady-state chlorination kinetics
Common to all, as to format: biochemical, Streptomyces toxytricini
Holding throughout (conditions): wild type; kinetic assay conditions not given

Substrate in data set [1]: NC(=O)c1ccccc1N
From the text: (§1) steady-state chlorination kinetics on SttH

Substrate in data set [2]: N[C@@H](Cc1c[nH]c2ccccc12)C(=O)O
From the text: as §1

Substrate in data set [3]: Nc1ccccc1C(=O)C[C@H](N)C(=O)O
From the text: as §1

B1: SttH (Streptomyces toxytricini) (protein)
chain: MNTRNPDKVVIVGGGTAGWMTASYLKKAFGERVSVTLVESGTIGTVGVGEATFSDIRHFFEFLDLREEEWMPACNATYKLAVRFQDWQRPGHHFYHPFEQMRSVDGFPLTDWWLQNGPTDRFDRDCFVMASLCDAGRSPRYLNGSLLQQEFDERAEEPAGLTMSEHQGKTQFPYAYHFEAALLAEFLSGYSKDRGVKHVVDEVLEVKLDDRGWISHVVTKEHGDIGGDLFVDCTGFRGVLLNQALGVPFVSYQDTLPNDSAVALQVPLDMEARGIPPYTRATAKEAGWIWTIPLIGRIGTGYVYAKDYCSPEEAERTLREFVGPEAADVEANHIRMRIGRSEQSWKNNCVAIGLSSGFVEPLESTGIFFIHHAIEQLVKHFPAGDWHPQLRAGYNSAVANVMDGVREFLVLHYLGAARNDTRYWKDTKTRAVPDALAERIERWKVQLPDSENVFPYYHGLPPYSYMAILLGTGAIGLRPSPALALADPAAAEKEFTAIRDRARFLVDTLPSQYEYFAAMGQRV
notes: wild type, purified recombinant from E. coli; dimer in crystal
For B1, the figures for the Km in data set [1], in data set [2] and in data set [3] were 1075 ± 154 µM, 0.8 ± 0.1 µM and 241 ± 32 µM, respectively. Moreover, the kcat in data set [1] came out at 0.0202 ± 0.000667 s⁻¹; in data set [2], 0.0108 ± 0.000333 s⁻¹; in data set [3] it was 0.0085 ± 0.000333 s⁻¹. Besides, the kcat/Km in data set [1] turned out to be 18.3 ± 2.83 M⁻¹ s⁻¹; in data set [2], 13700 ± 1580 M⁻¹ s⁻¹; in data set [3], 35 ± 5 M⁻¹ s⁻¹.
